Experimental data taken from the supplement of paper PMC11246515.
± gives the standard deviation of the averaged measurements.

Assay: total protein half-life in vivo (active degradation + dilution); higher = more stable protein
[1] = E. coli NCM3722 delta-clpP delta-lon delta-hslV, growth: N-lim chemostat, doubling time 6 h
[2] = E. coli NCM3722 delta-hslV, growth: N-lim chemostat, doubling time 6 h
[3] = E. coli NCM3722 delta-lon, growth: N-lim chemostat, doubling time 6 h
[4] = E. coli NCM3722 delta-smpB, growth: N-lim chemostat, doubling time 6 h
[5] = wild type E. coli NCM3722, growth: C-lim chemostat, doubling time 3 h
[6] = wild type E. coli NCM3722, growth: C-lim chemostat, doubling time 6 h
[7] = wild type E. coli NCM3722, growth: C-lim chemostat, doubling time 12 h
[8] = wild type E. coli NCM3722, growth: N-lim chemostat, doubling time 6 h
[9] = wild type E. coli NCM3722, growth: N-lim chemostat, doubling time 12 h
[10] = wild type E. coli NCM3722, growth: P-lim chemostat, doubling time 6 h
[11] = wild type E. coli NCM3722, growth: P-lim chemostat, doubling time 12 h
[12] = E. coli NCM3722 delta-clpP, growth: N-lim chemostat, doubling time 6 h

Row | Sequence | total protein half-life in vivo [1] [h] | total protein half-life in vivo [2] [h] | total protein half-life in vivo [3] [h] | total protein half-life in vivo [4] [h] | total protein half-life in vivo [5] [h] | total protein half-life in vivo [6] [h] | total protein half-life in vivo [7] [h] | total protein half-life in vivo [8] [h] | total protein half-life in vivo [9] [h] | total protein half-life in vivo [10] [h] | total protein half-life in vivo [11] [h] | total protein half-life in vivo [12] [h]
1 | MAWNQPGNNGQDRDPWGSSKPGGNSEGNGNKGGRDQGPPDLDDIFRKLSKKLGGLGGGKGTGSGGGSSSQGPRPQLGGRVVTIAAAAIVIIWAASGFYTIKEAERGVVTRFGKFSHLVEPGLNWKPTFIDEVKPVNVEAVRELAASGVMLTSDENVVRVEMNVQYRVTNPEKYLYSVTSPDDSLRQATDSALRGVIGKYTMDRILTEGRTVIRSDTQRELEETIRPYDMGITLLDVNFQAARPPEEVKAAFDDAIAARENEQQYIREAEAYTNEVQPRANGQAQRILEEARAYKAQTILEAQGEVARFAKLLPEYKAAPEITRERLYIETMEKVLGNTRKVLVNDKGGNLMVLPLDQMLKGGNAPAAKSDNGASNLLRLPPASSSTTSGASNTSSTSQGDIMDQRRANAQRNDYQRQGE [P0ABC7] | 7 ± 0.75 | 6.71 ± 0.23 | 6.55 ± 0.23 | 6.38 ± 0.49 | 2.99 ± 0.1 | 6.35 ± 0.6 | 13.1 ± 1 | 6.52 ± 0.65 | 13.8 ± 0.55 | 6.06 ± 0.31 | 13.98 ± 0.078 | –
2 | MQENSPLLQLQNVGYLAGDAKILNNINFSLRAGEFKLITGPSGCGKSTLLKIVASLISPTSGTLLFEGEDVSTLKPEIYRQQVSYCAQTPTLFGDTVYDNLIFPWQIRNRQPDPAIFLDFLERFALPDSILTKNIAELSGGEKQRISLIRNLQFMPKVLLLDEITSALDESNKHNVNEMIHRYVREQNIAVLWVTHDKDEINHADKVITLQPHAGEMQEARYELA | 5.05 ± 0.21 | 5.16 ± 0.41 | 4.59 ± 0.41 | 6.21 ± 1.8 | 2.7 ± 0.38 | 6.58 ± 0.68 | 9.76 | 5.2 ± 0.14 | 9.23 ± 0.8 | 5.43 ± 0.2 | 11.7 ± 1.6 | 5 ± 0.8
3 | MGMENYNPPQEPWLVILYQDDHIMVVNKPSGLLSVPGRLEEHKDSVMTRIQRDYPQAESVHRLDMATSGVIVVALTKAAERELKRQFREREPKKQYVARVWGHPSPAEGLVDLPLICDWPNRPKQKVCYETGKPAQTEYEVVEYAADNTARVVLKPITGRSHQLRVHMLALGHPILGDRFYASPEARAMAPRLLLHAEMLTITHPAYGNSMTFKAPADF [P0AA37] | 4.98 ± 0.17 | 5.03 ± 0.2 | 4.55 ± 1.1 | 4.63 ± 0.28 | 3.82 | 7.71 | – | 4.66 ± 0.18 | 7.6 | 6.39 | 12.7 | 4.59 ± 0.51
4 | MKKIAFGCDHVGFILKHEIVAHLVERGVEVIDKGTWSSERTDYPHYASQVALAVAGGEVDGGILICGTGVGISIAANKFAGIRAVVCSEPYSAQLSRQHNDTNVLAFGSRVVGLELAKMIVDAWLGAQYEGGRHQQRVEAITAIEQRRN | 4.69 ± 0.15 | 3.77 ± 0.19 | 3.82 ± 0.13 | 3.45 ± 0.1 | 3.05 ± 0.37 | 5.6 ± 0.41 | 9.29 ± 1.4 | 3.725 ± 0.033 | 5.17 ± 1 | 5.32 ± 0.18 | 10.2 ± 0.91 | –
5 | MTTRLTRWLTTLDNFEAKMAQLPAVRRYGRLTRATGLVLEATGLQLPLGATCVIERQNGSETHEVESEVVGFNGQRLFLMPLEEVEGVLPGARVYAKNISAEGLQSGKQLPLGPALLGRVLDGSGKPLDGLPSPDTTETGALITPPFNPLQRTPIEHVLDTGVRPINALLTVGRGQRMGLFAGSGVGKSVLLGMMARYTRADVIVVGLIGERGREVKDFIENILGAEGRARSVVIAAPADVSPLLRMQGAAYATRIAEDFRDRGQHVLLIMDSLTRYAMAQREIALAIGEPPATKGYPPSVFAKLPALVERAGNGISGGGSITAFYTVLTEGDDQQDPIADSARAILDGHIVLSRRLAEAGHYPAIDIEASISRAMTALISEQHYARVRTFKQLLSSFQRNRDLVSVGAYAKGSDPMLDKAIALWPQLEGYLQQGIFERADWEASLQGLERIFPTVS | 3.91 | – | – | – | 2.04 ± 0.092 | 3.72 | 4.73 ± 0.2 | – | – | – | – | –
6 | MTGKKRSASSSRWLQEHFSDKYVQQAQKKGLRSRAWFKLDEIQQSDKLFKPGMTVVDLGAAPGGWSQYVVTQIGGKGRIIACDLLPMDPIVGVDFLQGDFRDELVMKALLERVGDSKVQVVMSDMAPNMSGTPAVDIPRAMYLVELALEMCRDVLAPGGSFVVKVFQGEGFDEYLREIRSLFTKVKVRKPDSSRARSREVYIVATGRKP [P0C0R7] | 5.17 ± 0.46 | 4.42 ± 0.32 | 4.55 ± 0.18 | 4.52 ± 0.28 | 2.81 ± 0.034 | 5.87 ± 0.41 | 11.4 ± 1.5 | 4.45 ± 0.14 | 7.904 ± 0.057 | 5.13 ± 0.14 | 8.89 ± 0.018 | 3.946 ± 0.035
7 | MTLSSQHYLVITALGADRPGIVNTITRHVSSCGCNIEDSRLAMLGEEFTFIMLLSGSWNAITLIESTLPLKGAELDLLIVMKRTTARPRPPMPASVWVQVDVADSPHLIERFTALFDAHHMNIAELVSRTQPAENERAAQLHIQITAHSPASADAANIEQAFKALCTELNAQGSINVVNYSQHDEQDGVK [P0A9I3] | 4.9 ± 0.79 | 4.53 ± 0.06 | 4.62 ± 0.24 | 4.056 ± 0.037 | 2.976 ± 0.012 | 5.48 ± 0.32 | 9.43 ± 3.2 | 4.42 ± 0.34 | 7.51 ± 0.33 | 5.71 ± 0.46 | 12.1 ± 1.4 | 4.39 ± 0.19
8 | MTNVLIVEDEQAIRRFLRTALEGDGMRVFEAETLQRGLLEAATRKPDLIILDLGLPDGDGIEFIRDLRQWSAVPVIVLSARSEESDKIAALDAGADDYLSKPFGIGELQARLRVALRRHSATTAPDPLVKFSDVTVDLAARVIHRGEEEVHLTPIEFRLLAVLLNNAGKVLTQRQLLNQVWGPNAVEHSHYLRIYMGHLRQKLEQDPARPRHFITETGIGYRFML | 5.392 ± 0.013 | 5.29 ± 0.32 | 4.99 ± 0.47 | 4.92 ± 0.36 | 3.04 ± 0.1 | 5.35 ± 0.76 | 10.1 ± 0.52 | 5.05 ± 0.32 | 9.806 ± 0.011 | 5.79 ± 0.17 | 10.1 ± 2 | 5.1 ± 0.7
